From US20220218614A1, “IONIZABLE CATIONIC LIPIDS AND LIPID NANOPARTICLES, AND METHODS OF SYNTHESIS AND USE THEREOF” (Tidal Therapeutics, Inc., priority 2020, published 2022)
“Also recorded” adds a separate entry of the source.

B1: Teplizumab: anti-CD3 Teplizumab bDS Fab, SEQ ID NO: 54 and 55 (antibody)
heavy: QVQLVQSGGGVVQPGRSLRLSCKASGYTFTRYTMHWVRQAPGKGLEWIGYINPSRGYTNYNQKVKDRFTISRDNSKNTAFLQMDSLRPEDTGVYFCARYYDDHYCLDYWGQGTPVTVSSASTKGPSVFPLAPSSKSTSGGTAALGCLVKDYFPEPVTVSWNSGALTSGVHTCPAVLQSSGLYSLSSVVTVPSSSLGTQTYICNVNHKPSNTKVDKKVEPKSSDKTHTCHHHHHH
light: DIQMTQSPSSLSASVGDRVTITCSASSSVSYMNWYQQTPGKAPKRWIYDTSKLASGVPSRFSGSGSGTDYTFTISSLQPEDIATYYCQQWSSNPFTFGQGTKLQITRTVAAPSVFIFPPSDEQLKSGTASVVCLLNNFYPREAKVQWKVDNALQSGNSQESVTEQDSKDSTYSLCSTLTLSKADYEKHKVYACEVTHQGLSSPVTKSFNRGES
B2: BDSn: anti-CD8 Nanobody, SEQ ID NO: 77 (protein)
VHH: EVQLVESGGGLVQAGGSLRLSCAASGSTFSDYGVGWFRQAPGKGREFVADIDWNGEHTSYADSVKGRFATSRDNAKNTAYLQMNSLKPEDTAVYYCAADALPYTVRKYNYWGQGTQVTVSSGGCGGHHHHHH
modifications: conjugate
B3: OKT8: anti-CD8 Fab, SEQ ID NO: 8 and 9 (antibody)
heavy: QVQLVQSGAEDKKPGASVKVSCKASGFNIKDTYIHWVRQAPGQGLEWMGRIDPANDNTLYASKFQGRVTITADTSSNTAYMELSSLRSEDTAVYYCGRGYGYYVFDHWGQGTTVTVSSASTKGPSVFPLAPSSKSTSGGTAALGCLVKDYFPEPVTVSWNSGALTSGVHTFPAVLQSSGLYSLSSVVTVPSSSLGTQTYICNVNHKPSNTKVDKKVEPKSSDKTHTC
light: DIVMTQSPSSLSASVGDRVTITCRTSRSISQYLAWYQEKPGKAPKLLIYSGSTLQSGVPSRFSGSGSGTDFTLTISSLQPEDFATYYCQQHNENPLTFGQGTKVEIKRTVAAPSVFIFPPSDEQLKSGTASVVCLLNNFYPREAKVQWKVDNALQSGNSQESVTEQDSKDSTYSLSSTLTLSKADYEKHKVYACEVTHQGLSSPVTKSFNRGES

Tests used:
Assay type in all cases: cell-based
human CD3 T cells = experiment: Transfection of human CD3 T cells (CD8 and CD4 subsets) with Fab/Nb-targeted LNPs; conditions: targeted Lipid 8 LNP (Lipid 5 in Example 43), GFP mRNA approximately 2.5 μg/mL, approximately 24 hr
Procedure: LNPs were prepared using the mixing process described in Example 6, the buffer exchange process described below in Example 21. Using methods similar to Example 12, hSP34 and TRX2 Fab-lipid conjugates and a non-T cell specific anti-HER2 lipid-conjugate (Nellis D F, Ekstrom D L, Kirpotin D B, Zhu J, Andersson R, Broadt T L, Ouellette T F, Perkins S C, Roach J M, Drummond D C, Hong K, Marks J D, Park J W and Giardina S L (2005) Preclinical manufacture of an anti-HER2 scFv-PEG-DSPE, liposome-inserting conjugate. 1. Gram-scale production and purification. Biotechnol Prog 21:205-220) were post-inserted at various densities (SP34 0.25-17 g/mol; TRX2 0.25-9 g/mol; SP34+TRX2 0.25-9 g/mol each conjugate; anti-HER2 17 g/mol) into LNPs containing Lipid 8 and anti-CD20 targeting CART mRNA. Transfections were performed with human CD3 T cells at approximately 2.5 μg/mL mRNA for approximately 24 hr. For FACS analysis T cells were stained with M1 antibody (Sigma, F3040) that bind a N-terminus FLAG-tag variant sequence on the TTR-023 CAR (sequence provided below) in addition to staining for CD69 (Biolegend, 310930) and CD4 (Biolegend, 344648) to differentiate CD8 from CD4 cells.
LNPs were prepared using the mixing process described in Example 6, the buffer exchange process described in Example 21. Using methods similar to Example 12, hSP34, TRX2, and Ibalizumab Fab-lipid conjugates and a non-T cell specific anti-HER2 lipid-conjugate were post-inserted at various densities (specified in FIGS. 20A and 20B into LNPs containing Lipid 8 and Cy5/GFP mRNA. Transfections were performed with human CD3 T cells at approximately 2.5 μg/mL mRNA for approximately 24 hr and stained for CD69 (Biolegend, 310930) and CD4 (Biolegend, 344648) to differentiate CD8 from CD4 cells by FACS analysis.
LNPs were prepared using the mixing process described in Example 6, the buffer exchange process described in Example 21. Conjugates were generated using a method similar to that of Example 4 except 0.025, 0.1, 0.5 mM TCEP was used for hSP34 DS, 0.025, 0.2, 2 mM TCEP was used for hSP34-hlam NoDS (interchain disulfide knockout) for reduction prior to conjugation and the conjugation reactions were performed at 37 C for 2 hr. SDS-PAGE (FIGS. 65A, 65B) was performed using the manufacturers recommended conditions with 1 ug of protein (Thermo, 4-12% Bis-Tris MiniGel). RP-HPLC (FIGS. 65C, 65D) was performed using an Agilent 300 SB-C8 at 0.5 mL/min with a column temperature of 60° C., Mobile Phase A: Water with 0.1% TFA, Mobile Phase B: Acetonitrile with 0.1% TFA, Gradient % B: 0 min 5%, 1 min 5%, 6.5 min 95%, 8 min 95% injecting 10 ul with a target of 1-25 ug of protein. Using methods similar to Example 12, ant-CD3 hSP34 (with and without natural interchain disulfide, DS (with interchain disulfide) vs. NoDS (without interchain disulfide), see sequences below) PEG-lipid conjugated Fabs were post-inserted at various Fab densities (6, 12, 17 g Fab/mol total lipid) into LNPs containing Lipid 8 and Cy5/GFP mRNA. Transfections were performed with human CD3 T cells at approximately 2.5 μg/mL mRNA for approximately 24 hr. Levels of transfection of CD3 T cells was measured by flow cytometry.
LNPs were prepared using the mixing process described in Example 6, the buffer exchange process described in Example 21. Conjugates were generated using a method similar to that of Example 4 except 0.1 mM TCEP was used for reduction prior to conjugation and the conjugation reaction was performed at 37 C for 2 hr. […]

IFNγ = experiment: Human IFNγ ELISA of T cell culture supernatants after LNP transfection; conditions: T cells approximately 24 hr after targeted LNPs at approximately 2.5 μg/mL mRNA
Procedure: (§1) LNPs were prepared using the mixing process described in Example 6, the buffer exchange process described in Example 21. hSP34 and TRX2 Fab-lipid conjugates generated from methods described in Example 4 and a non-T cell specific anti-HER2 lipid-conjugate (Nellis D F, Ekstrom D L, Kirpotin D B, Zhu J, Andersson R, Broadt T L, Ouellette T F, Perkins S C, Roach J M, Drummond D C, Hong K, Marks J D, Park J W and Giardina S L (2005) Preclinical manufacture of an anti-HER2 scFv-PEG-DSPE, liposome-inserting conjugate. 1. Gram-scale production and purification. Biotechnol Prog 21:205-220) were post-inserted at various densities (SP34 0.6-17 g/mol; TRX2 3-9 g/mol; anti-HER2 17 g/mol) into LNPs containing Lipid 8, Cy5 labeled GFP mRNA and GFP mRNA (1:9 Cy5:GFP mass ratio) by adding conjugate and LNPs together and heating the solution without mixing in a thermal cycler at 60 C for 60 min and cooled to 4° C. for 3-5 min. […] After transfection, LNP binding efficiency (Cy5) and transfection efficiency (GFP) was evaluated by flow cytometry. Supernatants were measured for human IFNγ concentration using a commercially available ELISA kit under manufacturers recommended conditions (R&D Systems Duoset).
IFN-γ was assayed using an R&D Duoset […] ELISA kit, PN DY285B. […] Optical density at 450 nm was read on a Spectramax M5 plate reader. […]

human CD8 T cells = experiment: Transfection of human CD8 T cells with Fab-targeted Cy5/GFP mRNA LNPs; conditions: Lipid 8 LNP, Cy5/GFP mRNA approximately 2.5 μg/mL, approximately 24 hr, Fab conjugate post-inserted
Procedure: as §1, with “Duoset). […]” for “Duoset).”

Molecule | % GFP transfection and GFP expression (MFI) of CD8 and CD4 T cells, in words (human CD3 T cells) | IFNγ secretion into supernatant, in words (IFNγ) | transfection (% GFP+, GFP MFI) and binding (% Cy5+, Cy5 MFI), in words (human CD8 T cells)
B1 | lower levels of GFP expression | higher levels of IFNγ secretion than SP34 | –
B2 | higher % transfection (FIG. 73A) and GFP expression levels (FIG. 73B) than anti-CD8 TRX2; also recorded: transfection and translation was only observed in the CD8 T cell population | did not mediate substantial IFNγ secretion levels over non-targeted mutOKT8 Fab | –
B3 | – | – | high levels of particle binding
